Literature values, collected in paper PMC2650229.

Biological target: ERp57 b' domain (Homo sapiens) (UniProt P30101)
Chain of UniProt P30101 (P30101 241-360): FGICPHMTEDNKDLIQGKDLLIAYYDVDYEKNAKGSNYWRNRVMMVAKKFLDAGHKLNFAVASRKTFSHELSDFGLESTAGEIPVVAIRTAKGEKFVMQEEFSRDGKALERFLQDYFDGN

For “calreticulin P-domain (from UniProt P27797)”, which Kd is on record?
The Kd was 2600 nM.
